Reference: patent publication US8603949B2, “Libraries of optimized cytochrome P450 enzymes and the optimized P450 enzymes” (California Institute of Technology, priority 2003, dated 2013)

Assay: Library plate screen on five test substrates (4-AAP, 12-pNCA)
Assay type: biochemical
Conditions: seven-crossover library, cell lysate, 20 mM H2O2
Experimental: These library plates were replicated and grown in 96 deep-well plates in 900 μL of LB media with 100 μg/ml ampicillin overnight at 30° C. and 250 rpm. 150 μL of this was then transferred to 850 μL of induction media (TB-media with final concentrations of 100 μg/ml ampicillin, 25 μg/ml thiamine, 0.5 mM δ-aminolevulinic acid and 0.6 mM IPTG). These were grown for 20-24 hours at 25° C. and 190 rpm, harvested by centrifugation at 5000×g for 8 minutes and frozen at -20° C. for at least 24 hours. Cells were resuspended using a pipetting robot (Multimek 96, Beckman) and lysed in 400 μL of Epps or Tris buffer (100 mM, pH 8.2) containing 0.8 mg/ml lysozyme and 2 units/mL DNaseI for 1 hour at 37° C. Plates were then spun for 8 minutes at 5000×g and 4° C. to pellet cell debris. 80 μL of lysate was transferred into 4 separate 96 well plates for each library plate. […] On one plate, high -throughput carbon monoxide spectroscopy was done in order to assess relative amounts of P450 (Otey, C. R. High-throughput carbon monoxide binding assay for cytochromes P450. In Directed Enzyme Evolution: Screening and Selection Methods, F. H. Arnold and […]. 137-139 (2003)) with 0.1 M sodium hydrosulfite being used in place of 0.4 M. The other three plates were used to assay activity on different substrates. Examples of assays that have been or could be used include the 4-AAP (Otey, C. R., and Joern, J. M. High-throughput screen for aromatic hydroxylation. In Directed Enzyme Evolution: Screening and Selection Methods, F. H. Arnold and […]. 141-148 (2003)), 12-pNCA (Schwaneberg et al., Anal. Biochem., 269:359-366 (1999), NBP assay ([…], et al., J Biomol Screen, 9:141-146 (2004)), 7-ethoxyresorufin (Sieber et al., Nat Biotechnol., 19:456-460 (2001)), vivid substrate assays (Marks et al., Assay Drug Dev Technol 1, 73-81 (2002); Marks et al., AAPS PharmSci 5, E18 (2003)), and purpald assays (Peters et al., J Am Chem Soc 125:13442-13450 (2003)). Since the heme domains were being used, the hydrogen peroxide was used to drive the reactions via the peroxide shunt (Cirino, P. C., and Arnold, F. H., Advanced Synthesis & Catalysis 344, 932-937 (2002)). The 4-AAP assay detects phenol-like compounds and consists of the addition of 40 μL of a 3.5× substrate solution (containing substrate concentrations dependent for each substrate) to 80 μL of lysate. […] Then a 7×(140 mM) H2O2 hydrogen peroxide solution was added resulting in a final concentration of 20 mM hydrogen peroxide. The reaction was mixed and left at room temperature without shaking for two hours and then quenched with 140 μL of 0.1 m NaOH and 4 M Urea. 38 μL of 0.6% 4-aminoantipyrine was added followed by blanking of the 96-well plate reader at 500 nm. 38 μL of 0.6% potassium persulfate was added and after 20 minutes the A500 was read. […]

B1: Chimera F3748: chimera of the CYP102A1/A2/A3 seven-crossover library (protein)
chain: KQASAIPQPKTYGPLKNLPHLEKEQLSQSLWRIADELGPIFRFDFPGVSSVFVSGHNLVAEVCDEERFDKSIEGALEKVRAFSGDGLATSWTHEPNWRKAHNILMPTFSQRAMKDYHEKMVDIATQLIQKWSRLNPNEEIDVADDMTRLTLDTIGLCGFNYRFNSFYRDQPHPFITSMVRALDEAMNKLQRANPDDPAYDENKRQFQEDIKVMNDLVDRMIAERKANPDENIKDLLSLMLYAKDPVTGETLDDENIRYQIITFLIAGHETTSGLLSFATYFLLKHPDKLKKAYEEVDRVLTDAAPTYKQVLELTYIRMILNESLRLWPTAPAFSLYAKEDTVLGGEYPISKGQPVTVLIPKLHRDQNAWGPDAEDFRPERFEDPSSIPHHAYKPFGNGQRACIGMQFALQEATMVLGLVLKHFELINHTGYELKIKEALTIKPDDFKITVKPRKTAAINVQRKEQA
modifications: Chimeric Cytochrome P450 heme group polypeptide sequence from CYP102A1 (Bacillus megaterium); CYP102A2 (Bacillus subtilis) and CYP102A3 (Bacillus subtilis)
notes: chimera of the CYP102A1/A2/A3 seven-crossover library
  activity on test substrates incl. novel substrates (diphenyl ether, allyloxy-benzene): activity that is novel

B2: Chimera F37233: chimera of the CYP102A1/A2/A3 seven-crossover library (protein)
chain: KQASAIPQPKTYGPLKNLPHLEKEQLSQSLWRIADELGPIFRFDFPGVSSVFVSGHNLVAEVCDEKRFDKNLGKGLQKVREFGGDGLATSWTHEPNWQKAHRILLPSFSQKAMKGYHSMMLDIAVQLIQKWARLNPNEAVDVPGDMTRLTLDTIGLCGFNYRFNSYYRDQPHPFITSMVRALDEAMNKLQRANPDDPAYDENKRQFQEDIKVMNDLVDSIIAERRANGDQDEKDLLARMLNVEDPETGEKLDDENIRFQIITFLIAGHETTSGLLSFATYFLLKHPDKLKKAYEEVDRVLTDAAPTYKQVLELTYIRMILNESLRLWPTAPAFSLYAKEDTVLGGEYPLEKGDELMVLIPQLHRDKTIWGDDVEEFRPERFENPSAIPQHAFKPFGNGQRACIGQQFALQEATMVLGLVLKHFELINHTGYELKIKEALTIKPDDFKITVKPRKTAAINVQRKEQA
modifications: Chimeric Cytochrome P450 heme group polypeptide sequence from CYP102A1 (Bacillus megaterium); CYP102A2 (Bacillus subtilis) and CYP102A3 (Bacillus subtilis)
notes: as for B1
  activity on test substrates incl. novel substrates (diphenyl ether, allyloxy-benzene): activity that is novel

B3: Chimera F37202: chimera of the CYP102A1/A2/A3 seven-crossover library (protein)
chain: KQASAIPQPKTYGPLKNLPHLEKEQLSQSLWRIADELGPIFRFDFPGVSSVFVSGHNLVAEVCDEERFDKSIEGALEKVRAFSGDGLATSWTHEPNWRKAHNILMPTFSQRAMKDYHEKMVDIATQLIQKWSRLNPNEEIDVADDMTRLTLDTIGLCGFNYRFNSFYRDQPHPFITSMVRALDEAMNKLQRANPDDPAYDENKRQFQEDIKVMNDLVDRMIAERKANPDENIKDLLSLMLYAKDPVTGETLDDENIRYQIITFLIAGHETTSGLLSFAIYCLLTHPEKLKKAQEEADRVLTDDTPEYKQIQQLKYIRMVLNETLRLYPTAPAFSLYAKEDTVLGGEYPISKGQPVTVLIPKLHRDQNAWGPDAEDFRPERFEDPSSIPHHAYKPFGNGQRACIGMQFALQEATMVLGLVLKHFELINHTGYELKIKEALTIKPDDFKITVKPRKTAAINVQRKEQA
modifications: Chimeric Cytochrome P450 heme group polypeptide sequence from CYP102A1 (Bacillus megaterium); CYP102A2 (Bacillus subtilis) and CYP102A3 (Bacillus subtilis)
notes: as for B1
  activity on test substrates incl. novel substrates (diphenyl ether, allyloxy-benzene): activity that is novel
